Experimental data published in the RNAGym collection of RNA variant scans (doi:10.7554/elife.80360).

B1: CPEB3 Ribozyme (parent)
chain: GGGGGCCACAGCAGAAGCGUUCACGUCGCGGCCCCUGUCAGAUUCUGGUGAAUCUGCGAAUUCUGCUGU

Variants of: B1
Experiment: self-cleavage, relative activity (ratio to wild type); higher = more cleavage; co-transcriptional

Point of comparison: U44A G48A, self-cleavage 0.953. Against it:
- C45U A60U — lower, 0.469
- C45U A60C — lower, 0.33
- C45U A60G — lower, 0.9
- C45A G56C — lower, 0.482
- C45A G56U — lower, 0.695
- C45U — higher, 0.996
- C45A — higher, 0.984
- C45G — higher, 0.986
- C45G A52C — higher, 0.981
- U44A U49A — higher, 1.02
- U44A U49G — higher, 0.993
- U44G U64C — lower, 0.754
- U44G U64G — lower, 0.84
- U43G A59U — lower, 0.566
- U43G A59G — lower, 0.836
- U43G A59C — lower, 0.513
- C45G G65A — lower, 0.87
- C45G G65U — lower, 0.832
- C45U C66G — lower, 0.87
- C45U C66A — lower, 0.843
- U44C C63U — lower, 0.819
- U44C C63G — lower, 0.417
- U43G A51U — lower, 0.934
- U44A U61C — lower, 0.662
- U44A U61A — lower, 0.843
- C45U G47A — higher, 1.03
- C45U G47U — higher, 1.02
- U43G U62G — lower, 0.468
- U43G G47C — lower, 0.936
- U43G U49C — lower, 0.815
- U43G U49G — lower, 0.922
- U43G U49A — higher, 0.963
- U44A U55C — lower, 0.496
- U44A U55A — lower, 0.566
- U43G C45G — lower, 0.907
- U43G C45A — lower, 0.886
- U44A A52U — higher, 0.969
- U43G U55G — lower, 0.264
- U43G U55A — lower, 0.486
- U44A C63A — lower, 0.731
- U44G U62C — lower, 0.842
- U43G C57A — lower, 0.293
- U43G U69G — higher, 0.97
- C45A A52U — lower, 0.919
- C45U A51C — higher, 0.999
- C45U A51U — lower, 0.947
- C45A A51C — lower, 0.924
- C45A A51G — higher, 1.02
- U43G U67G — lower, 0.867
- U43G U67C — lower, 0.915
- U43G U67A — lower, 0.79
- U44G C54G — lower, 0.417
- U44G C54U — lower, 0.87
- U44A U46A — higher, 0.99
- U44C U55A — lower, 0.524
- U44C U55C — lower, 0.473
- C45A U46A — higher, 1.01
- C45A U46C — higher, 1
- C45A U46G — lower, 0.917
- C45U A52C — higher, 0.988
- C45U A52U — higher, 0.972
- C45U A52G — higher, 1.01
- C45A C54G — lower, 0.562
- C45A C54U — lower, 0.926
- U44A C57U — lower, 0.397
- U44A C57A — lower, 0.383
- U44A C57G — lower, 0.365
- C45U C57A — lower, 0.32
- C45U C57G — lower, 0.319
- U43G U53G — lower, 0.854
- U43G U53A — lower, 0.8
- U44G A52G — lower, 0.943
- U44G A52U — higher, 0.975
- C45G C66G — lower, 0.877
- U43G A52U — higher, 0.992
- U43G A52C — higher, 0.962
- U43G A52G — lower, 0.911
- C45G G48C — higher, 1.01
- C45G G48A — higher, 1.01
- C45G G48U — higher, 1.02
- U43G G56C — lower, 0.329
- U43G G56A — lower, 0.481
